Molecular target: the molecule itself
Assay: SEC; lysate of transfected HeLa cells (RIPA buffer) on Superdex S200 HR10/30 in hypotonic buffer (20 mM HEPES, 10 mM KCl, 1 mM MgCl2, 1 mM EDTA, 1 mM EGTA, 1 mM DTT, pH 7.5); fractions precipitated with trichloroacetic acid and blotted with anti-myc; molecular weight markers as standard

B1: human α-galactosidase (α-Gal A), wild type (enzyme, UniProt P06280 32-429, looked up)
chain: LDNGLARTPTMGWLHWERFMCNLDCQEEPDSCISEKLFMEMAELMVSEGWKDAGYEYLCIDDCWMAPQRDSEGRLQADPQRFPHGIRQLANYVHSKGLKLGIYADVGNKTCAGFPGSFGYYDIDAQTFADWGVDLLKFDGCYCDSLENLADGYKHMSLALNRTGRSIVYSCEWPLYMWPFQKPNYTEIRQYCNHWRNFADIDDSWKSIKSILDWTSFNQERIVDVAGPGGWNDPDMLVIGNFGLSWNQQVTQMALWAIMAAPLFMSNDLRHISPQAKALLQDKDVIAINQDPLGKQGYQLRQGDNFEVWERPLSGLAWAVAMINRQEIGGPRSYTIAVASLGKGVACNPACFITQLLPVKRKLGFYEWTSRLRSHINPTGTVLLQLENTMQMSLKDLL
notes: human α-galactosidase A, full-length cDNA NM_000169 cloned in pcDNA4/TO/myc-His; The vector pcDNA4/TO/myc-His may also add a His tag after the Myc tag; also called WT α-Gal; Agal; source: HeLa, transiently transfected, in lysate (RIPA buffer); not shown: Myc, C-terminal, kept
**Q.** How did the “stoichiometry N” value turn out when B1 was run?
**A.** 2

Reference: publication PMC4770091, “Structural hot spots for the solubility of globular proteins” (Nature Communications, 2016)
